According to the supplement of paper PMC9112550, “Optimization of the antimicrobial peptide Bac7 by deep mutational scanning” (BMC Biology, 2022):

Tested on: Escherichia coli TOP10
Experiment: shrunken log2 fold change of peptide-encoding DNA abundance (4.5 h post-induction vs induction); higher = less antimicrobial activity (less host growth inhibition)
Settings: time post-induction: 4.5 h; library: site-saturation at positions 5, 18, 19, 20
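Further: peptides expressed intracellularly from a pBAD plasmid library in pooled LB shake-flask culture, induced with 0.3% L-arabinose, DNA abundance read by NGS, three biological replicates, DESeq2 with apeglm shrinkage.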

RRIRHRPPRLPRPRPRPKQPPRP
shrunken log2 fold change: -0.00478

RRIRHRPPRLPRPRPRPKQWPRP
shrunken log2 fold change: 0.0913

RRIRHRPPRLPRPRPRPKRGPRP
shrunken log2 fold change: 0.0662

RRIRHRPPRLPRPRPRPKRKPRP
shrunken log2 fold change: 0.0863

RRIRHRPPRLPRPRPRPKRSPRP
shrunken log2 fold change: 0.0325

RRIRHRPPRLPRPRPRPKSMPRP
shrunken log2 fold change: -0.503

RRIRHRPPRLPRPRPRPKSNPRP
shrunken log2 fold change: -0.216

RRIRHRPPRLPRPRPRPKTDPRP
shrunken log2 fold change: -0.434

RRIRHRPPRLPRPRPRPKTMPRP
shrunken log2 fold change: -0.0912

RRIRHRPPRLPRPRPRPKYFPRP
shrunken log2 fold change: -0.0202

RRIRHRPPRLPRPRPRPKYMPRP
shrunken log2 fold change: -0.746

RRIRHRPPRLPRPRPRPKYPPRP
shrunken log2 fold change: 0.0718

RRIRHRPPRLPRPRPRPLALPRP
shrunken log2 fold change: -0.563

RRIRHRPPRLPRPRPRPLCPPRP
shrunken log2 fold change: -0.138

RRIRHRPPRLPRPRPRPLCYPRP
shrunken log2 fold change: -0.737

RRIRHRPPRLPRPRPRPLEDPRP
shrunken log2 fold change: 0.0039

RRIRHRPPRLPRPRPRPLEFPRP
shrunken log2 fold change: 0.0369

RRIRHRPPRLPRPRPRPLFCPRP
shrunken log2 fold change: -0.604

RRIRHRPPRLPRPRPRPLFKPRP
shrunken log2 fold change: -0.183

RRIRHRPPRLPRPRPRPLFPPRP
shrunken log2 fold change: -0.102

RRIRHRPPRLPRPRPRPLFTPRP
shrunken log2 fold change: -0.699

RRIRHRPPRLPRPRPRPLGCPRP
shrunken log2 fold change: 0.116

RRIRHRPPRLPRPRPRPLGDPRP
shrunken log2 fold change: 0.146

RRIRHRPPRLPRPRPRPLHPPRP
shrunken log2 fold change: -0.148

RRIRHRPPRLPRPRPRPLIAPRP
shrunken log2 fold change: -0.261

RRIRHRPPRLPRPRPRPLIEPRP
shrunken log2 fold change: -0.106

RRIRHRPPRLPRPRPRPLIQPRP
shrunken log2 fold change: -0.0847

RRIRHRPPRLPRPRPRPLLMPRP
shrunken log2 fold change: -0.0151

RRIRHRPPRLPRPRPRPLLYPRP
shrunken log2 fold change: -0.528

RRIRHRPPRLPRPRPRPLPLPRP
shrunken log2 fold change: 0.0701

RRIRHRPPRLPRPRPRPLPSPRP
shrunken log2 fold change: 0.393

RRIRHRPPRLPRPRPRPLQVPRP
shrunken log2 fold change: -0.28

RRIRHRPPRLPRPRPRPLQWPRP
shrunken log2 fold change: -0.127

RRIRHRPPRLPRPRPRPLRAPRP
shrunken log2 fold change: 0.513

RRIRHRPPRLPRPRPRPLSEPRP
shrunken log2 fold change: 0.203

RRIRHRPPRLPRPRPRPLTPPRP
shrunken log2 fold change: -0.119

RRIRHRPPRLPRPRPRPLTSPRP
shrunken log2 fold change: -0.246

RRIRHRPPRLPRPRPRPLVDPRP
shrunken log2 fold change: -0.219

RRIRHRPPRLPRPRPRPLYAPRP
shrunken log2 fold change: -0.402

RRIRHRPPRLPRPRPRPLYRPRP
shrunken log2 fold change: -0.343

RRIRHRPPRLPRPRPRPMAMPRP
shrunken log2 fold change: 0.00505

RRIRHRPPRLPRPRPRPMEIPRP
shrunken log2 fold change: -0.0801

RRIRHRPPRLPRPRPRPMENPRP
shrunken log2 fold change: 0.00439

RRIRHRPPRLPRPRPRPMGVPRP
shrunken log2 fold change: -0.00663

RRIRHRPPRLPRPRPRPMHHPRP
shrunken log2 fold change: -0.154

RRIRHRPPRLPRPRPRPMHIPRP
shrunken log2 fold change: -1.93

RRIRHRPPRLPRPRPRPMHKPRP
shrunken log2 fold change: 0.227

RRIRHRPPRLPRPRPRPMHLPRP
shrunken log2 fold change: 0.0317

RRIRHRPPRLPRPRPRPMHVPRP
shrunken log2 fold change: -0.0591

RRIRHRPPRLPRPRPRPMIWPRP
shrunken log2 fold change: -0.00298

RRIRHRPPRLPRPRPRPMKNPRP
shrunken log2 fold change: 0.0372

RRIRHRPPRLPRPRPRPMLSPRP
shrunken log2 fold change: -0.0786

RRIRHRPPRLPRPRPRPMMSPRP
shrunken log2 fold change: 0.0372

RRIRHRPPRLPRPRPRPMNLPRP
shrunken log2 fold change: -0.0351

RRIRHRPPRLPRPRPRPMQLPRP
shrunken log2 fold change: -0.366

RRIRHRPPRLPRPRPRPMQMPRP
shrunken log2 fold change: -0.00907

RRIRHRPPRLPRPRPRPMRMPRP
shrunken log2 fold change: -0.00476

RRIRHRPPRLPRPRPRPMRRPRP
shrunken log2 fold change: 0.00585

RRIRHRPPRLPRPRPRPMSFPRP
shrunken log2 fold change: -0.089

RRIRHRPPRLPRPRPRPMSQPRP
shrunken log2 fold change: -0.151

RRIRHRPPRLPRPRPRPMWFPRP
shrunken log2 fold change: -0.218

RRIRHRPPRLPRPRPRPMWPPRP
shrunken log2 fold change: 0.0906

RRIRHRPPRLPRPRPRPMWVPRP
shrunken log2 fold change: -0.015

RRIRHRPPRLPRPRPRPMYAPRP
shrunken log2 fold change: -0.0133

RRIRHRPPRLPRPRPRPNCIPRP
shrunken log2 fold change: -0.753

RRIRHRPPRLPRPRPRPNEQPRP
shrunken log2 fold change: -0.0176

RRIRHRPPRLPRPRPRPNGCPRP
shrunken log2 fold change: -0.0302

RRIRHRPPRLPRPRPRPNGKPRP
shrunken log2 fold change: -0.335

RRIRHRPPRLPRPRPRPNGPPRP
shrunken log2 fold change: -0.0992

RRIRHRPPRLPRPRPRPNITPRP
shrunken log2 fold change: -0.489

RRIRHRPPRLPRPRPRPNLKPRP
shrunken log2 fold change: -0.465

RRIRHRPPRLPRPRPRPNMEPRP
shrunken log2 fold change: -0.0709

RRIRHRPPRLPRPRPRPNMMPRP
shrunken log2 fold change: -0.263

RRIRHRPPRLPRPRPRPNNMPRP
shrunken log2 fold change: -0.674

RRIRHRPPRLPRPRPRPNNSPRP
shrunken log2 fold change: -1.11

RRIRHRPPRLPRPRPRPNPVPRP
shrunken log2 fold change: -0.312

RRIRHRPPRLPRPRPRPNQCPRP
shrunken log2 fold change: -0.201

RRIRHRPPRLPRPRPRPNRVPRP
shrunken log2 fold change: -0.672

RRIRHRPPRLPRPRPRPNSQPRP
shrunken log2 fold change: -0.346

RRIRHRPPRLPRPRPRPNVPPRP
shrunken log2 fold change: -0.0223

RRIRHRPPRLPRPRPRPNYHPRP
shrunken log2 fold change: -0.83

RRIRHRPPRLPRPRPRPNYNPRP
shrunken log2 fold change: -0.89

RRIRHRPPRLPRPRPRPNYVPRP
shrunken log2 fold change: -0.0206

RRIRHRPPRLPRPRPRPPAHPRP
shrunken log2 fold change: 0.0763

RRIRHRPPRLPRPRPRPPAPPRP
shrunken log2 fold change: 0.466

RRIRHRPPRLPRPRPRPPCDPRP
shrunken log2 fold change: -0.22

RRIRHRPPRLPRPRPRPPCKPRP
shrunken log2 fold change: -0.196

RRIRHRPPRLPRPRPRPPEHPRP
shrunken log2 fold change: -0.116

RRIRHRPPRLPRPRPRPPILPRP
shrunken log2 fold change: -0.0767

RRIRHRPPRLPRPRPRPPKGPRP
shrunken log2 fold change: 0.113

RRIRHRPPRLPRPRPRPPKQPRP
shrunken log2 fold change: -0.00419

RRIRHRPPRLPRPRPRPPLHPRP
shrunken log2 fold change: 0.0208

RRIRHRPPRLPRPRPRPPLIPRP
shrunken log2 fold change: -0.0533

RRIRHRPPRLPRPRPRPPLNPRP
shrunken log2 fold change: -0.0242

RRIRHRPPRLPRPRPRPPMDPRP
shrunken log2 fold change: -0.309

RRIRHRPPRLPRPRPRPPMHPRP
shrunken log2 fold change: -0.0169

RRIRHRPPRLPRPRPRPPPDPRP
shrunken log2 fold change: 0.646

RRIRHRPPRLPRPRPRPPPIPRP
shrunken log2 fold change: 0.361

RRIRHRPPRLPRPRPRPPQDPRP
shrunken log2 fold change: 0.0355

RRIRHRPPRLPRPRPRPPRLPRP
shrunken log2 fold change: 0.0241

RRIRHRPPRLPRPRPRPPRWPRP
shrunken log2 fold change: 0.137

RRIRHRPPRLPRPRPRPPSFPRP
shrunken log2 fold change: -0.234

RRIRHRPPRLPRPRPRPPTTPRP
shrunken log2 fold change: -0.175

RRIRHRPPRLPRPRPRPPVMPRP
shrunken log2 fold change: -0.0747

RRIRHRPPRLPRPRPRPPWDPRP
shrunken log2 fold change: 0.131

RRIRHRPPRLPRPRPRPPYVPRP
shrunken log2 fold change: -0.0952

RRIRHRPPRLPRPRPRPQCMPRP
shrunken log2 fold change: -0.123

RRIRHRPPRLPRPRPRPQCYPRP
shrunken log2 fold change: -0.75

RRIRHRPPRLPRPRPRPQFIPRP
shrunken log2 fold change: -0.0365

RRIRHRPPRLPRPRPRPQGFPRP
shrunken log2 fold change: -0.00136

RRIRHRPPRLPRPRPRPQGQPRP
shrunken log2 fold change: 0.043

RRIRHRPPRLPRPRPRPQHRPRP
shrunken log2 fold change: -0.355

RRIRHRPPRLPRPRPRPQIHPRP
shrunken log2 fold change: -0.46

RRIRHRPPRLPRPRPRPQIIPRP
shrunken log2 fold change: -0.634

RRIRHRPPRLPRPRPRPQKGPRP
shrunken log2 fold change: -0.0617

RRIRHRPPRLPRPRPRPQKQPRP
shrunken log2 fold change: 0.219

RRIRHRPPRLPRPRPRPQKVPRP
shrunken log2 fold change: -0.0567

RRIRHRPPRLPRPRPRPQLEPRP
shrunken log2 fold change: 0.0607

RRIRHRPPRLPRPRPRPQLHPRP
shrunken log2 fold change: -0.169

RRIRHRPPRLPRPRPRPQPPPRP
shrunken log2 fold change: 0.373

RRIRHRPPRLPRPRPRPQPYPRP
shrunken log2 fold change: -1.53

RRIRHRPPRLPRPRPRPQQKPRP
shrunken log2 fold change: -0.0153

RRIRHRPPRLPRPRPRPQQLPRP
shrunken log2 fold change: 0.044

RRIRHRPPRLPRPRPRPQRFPRP
shrunken log2 fold change: -0.0098

RRIRHRPPRLPRPRPRPQSHPRP
shrunken log2 fold change: -0.167

RRIRHRPPRLPRPRPRPQSLPRP
shrunken log2 fold change: -0.00783

RRIRHRPPRLPRPRPRPQTSPRP
shrunken log2 fold change: -0.264

RRIRHRPPRLPRPRPRPQVDPRP
shrunken log2 fold change: -0.0221

RRIRHRPPRLPRPRPRPQWCPRP
shrunken log2 fold change: -0.218

RRIRHRPPRLPRPRPRPQWVPRP
shrunken log2 fold change: 0.0322

RRIRHRPPRLPRPRPRPQYMPRP
shrunken log2 fold change: -0.252

RRIRHRPPRLPRPRPRPQYPPRP
shrunken log2 fold change: -0.161

RRIRHRPPRLPRPRPRPRALPRP
shrunken log2 fold change: 0.152

RRIRHRPPRLPRPRPRPRCHPRP
shrunken log2 fold change: -0.555

RRIRHRPPRLPRPRPRPRCMPRP
shrunken log2 fold change: -0.153

RRIRHRPPRLPRPRPRPRFGPRP
shrunken log2 fold change: 0.0573

RRIRHRPPRLPRPRPRPRGEPRP
shrunken log2 fold change: -0.0677

RRIRHRPPRLPRPRPRPRHAPRP
shrunken log2 fold change: 0.164

RRIRHRPPRLPRPRPRPRHWPRP
shrunken log2 fold change: -0.0269

RRIRHRPPRLPRPRPRPRIKPRP
shrunken log2 fold change: -0.0701

RRIRHRPPRLPRPRPRPRIPPRP
shrunken log2 fold change: -0.32

RRIRHRPPRLPRPRPRPRIQPRP
shrunken log2 fold change: -0.267

RRIRHRPPRLPRPRPRPRKIPRP
shrunken log2 fold change: 0.051

RRIRHRPPRLPRPRPRPRLVPRP
shrunken log2 fold change: -0.113

RRIRHRPPRLPRPRPRPRNTPRP
shrunken log2 fold change: -0.229

RRIRHRPPRLPRPRPRPRTVPRP
shrunken log2 fold change: 0.126

RRIRHRPPRLPRPRPRPRWAPRP
shrunken log2 fold change: 0.315

RRIRHRPPRLPRPRPRPSAGPRP
shrunken log2 fold change: -0.182

RRIRHRPPRLPRPRPRPSCLPRP
shrunken log2 fold change: -0.4

RRIRHRPPRLPRPRPRPSCMPRP
shrunken log2 fold change: -0.224
